Assay results: article PMC6212790, “How bacterial xenogeneic silencer rok distinguishes foreign from self DNA in its resident genome” (Nucleic Acids Research, 2018)

Experiments:
[1] = molecular target: T1, Rok-C102-185 (Bacillus subtilis subsp. subtilis str. …, UniProt O34857 102-185); assay: NMR HSQC; ITC: sodium phosphate buffer, 200 mM NaCl, pH 6, 277 K, 50 uM protein in cell, 750 uM Seq1 DNA; NMR samples: 50 mM sodium phosphate, 50 mM NaCl, pH 6.0; conditions: protein: recombinant, tags: C-terminal His6, blunt
T1 sequence: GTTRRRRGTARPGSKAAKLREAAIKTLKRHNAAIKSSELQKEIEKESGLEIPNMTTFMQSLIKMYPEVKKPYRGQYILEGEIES

[2] = molecular target: the molecule itself; assay: SEC; gel filtration on a GE HiLoad 16/600 Superdex 75 preparation grade column; elution volumes compared with cytochrome C (12.4 kD) and the void volume
[3] = molecular target: T2, Rok-C97-191 (Bacillus subtilis subsp. subtilis str. …, UniProt O34857 97-191); assay: NMR titration; ITC: sodium phosphate buffer, 200 mM NaCl, pH 6, 277 K, 50 uM protein in cell, 750 uM Seq1 DNA; NMR samples: 50 mM sodium phosphate, 50 mM NaCl, pH 6.0; conditions: protein: recombinant; tags: C-terminal His6; blunt, self-complementary 12 bp
T2 sequence: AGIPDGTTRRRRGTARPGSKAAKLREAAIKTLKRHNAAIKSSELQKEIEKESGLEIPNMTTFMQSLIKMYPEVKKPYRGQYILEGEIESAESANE

[4] = molecular target: T3, Rok-C114-185 R174A (Bacillus subtilis subsp. subtilis str. …, UniProt O34857 114-185, R174A); assay: ITC; ITC: sodium phosphate buffer, 200 mM NaCl, pH 6, 277 K, 50 uM protein in cell titrated with 750 uM Seq1 DNA; PBM: buffer not stated; conditions: protein: recombinant; tags: C-terminal His6; blunt, self-complementary 18 bp
T3 sequence: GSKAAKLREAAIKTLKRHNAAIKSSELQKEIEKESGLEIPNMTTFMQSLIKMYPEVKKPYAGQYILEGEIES

[5] = molecular target: T4, Rok-C114-185 K164A (Bacillus subtilis subsp. subtilis str. …, UniProt O34857 114-185, K164A); assay: as above; conditions: protein: recombinant; tags: C-terminal His6; blunt, self-complementary 18 bp
T4 sequence: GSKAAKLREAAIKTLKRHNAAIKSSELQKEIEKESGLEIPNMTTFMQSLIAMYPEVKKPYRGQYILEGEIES

[6] = molecular target: T1, Rok-C102-185; assay: as above; conditions: protein: recombinant; tags: C-terminal His6; blunt, self-complementary 18 bp
[7] = molecular target: T5, Rok-C114-185 T157A (Bacillus subtilis subsp. subtilis str. …, UniProt O34857 114-185, T157A); assay: as above; conditions: protein: recombinant; tags: C-terminal His6; blunt, self-complementary 18 bp
T5 sequence: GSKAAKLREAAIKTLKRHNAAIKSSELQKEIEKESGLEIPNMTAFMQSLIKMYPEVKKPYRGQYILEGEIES

[8] = molecular target: T6, Rok-C114-185 K116A (Bacillus subtilis subsp. subtilis str. …, UniProt O34857 114-185, K116A); assay: as above; conditions: protein: recombinant; tags: C-terminal His6; blunt, self-complementary 18 bp
T6 sequence: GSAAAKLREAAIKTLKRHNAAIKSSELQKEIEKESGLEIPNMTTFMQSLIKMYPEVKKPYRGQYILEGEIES

[9] = molecular target: T7, Rok-C114-185 T156A (Bacillus subtilis subsp. subtilis str. …, UniProt O34857 114-185, T156A); assay: as above; conditions: protein: recombinant; tags: C-terminal His6; blunt, self-complementary 18 bp
T7 sequence: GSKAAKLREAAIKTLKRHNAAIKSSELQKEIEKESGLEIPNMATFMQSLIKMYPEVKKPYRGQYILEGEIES

[10] = molecular target: T8, Rok-C114-185 K136A (Bacillus subtilis subsp. subtilis str. …, UniProt O34857 114-185, K136A); assay: as above; conditions: protein: recombinant; tags: C-terminal His6; blunt, self-complementary 18 bp
T8 sequence: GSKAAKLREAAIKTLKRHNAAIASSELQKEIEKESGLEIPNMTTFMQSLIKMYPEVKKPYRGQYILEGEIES

[11] = molecular target: T9, Rok-C114-185 K171A (Bacillus subtilis subsp. subtilis str. …, UniProt O34857 114-185, K171A); assay: as above; conditions: protein: recombinant; tags: C-terminal His6; blunt, self-complementary 18 bp
T9 sequence: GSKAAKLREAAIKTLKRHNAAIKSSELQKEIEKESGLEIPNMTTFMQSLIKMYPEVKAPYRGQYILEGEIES

[12] = molecular target: T10, Rok-C114-185 (Bacillus subtilis subsp. subtilis str. …, UniProt O34857 114-185); assay: as above; conditions: protein: recombinant; tags: C-terminal His6; blunt, self-complementary 18 bp
T10 sequence: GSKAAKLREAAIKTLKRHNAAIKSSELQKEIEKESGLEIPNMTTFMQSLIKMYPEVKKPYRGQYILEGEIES

[13] = molecular target: T3, Rok-C114-185 R174A; assay: ITC; ITC: sodium phosphate buffer, 200 mM NaCl, pH 6, 277 K, 50 uM protein in cell, 750 uM Seq1 DNA; NMR samples: 50 mM sodium phosphate, 50 mM NaCl, pH 6.0; conditions: protein: recombinant; tags: C-terminal His6; blunt, self-complementary 18 bp
[14] = molecular target: T7, Rok-C114-185 T156A; assay: as above; conditions: protein: recombinant; tags: C-terminal His6; blunt, self-complementary 18 bp

B1: 8AT (dsDNA)
DNA 1: CATATATATATATATATG
DNA 2: CATATATATATATATATG
Q: Does B1 bind ([1]; self-complementary 18 bp)?
A: binds

B2: Rok-N^1-95 (N-terminal domain of Rok, residues 1-95) (domain or fragment, B. subtilis subsp. subtilis str. 168, UniProt O34857 1-95, looked up)
chain: MFNEREALRLRLEQLNEAEVKVIREYQIERDKIYAKLRELDRNGSPSEIKKDFRSEKKPDSLPVLAELAAQEIRSYQPQSQQQSVQPQLQSISSL
notes: Rok of Bacillus subtilis subsp. subtilis str; cloned into pET-21a(+) NdeI/XhoI; source: E. coli Rosetta (DE3), purified (Ni-NTA, size exclusion chromatography)
Q: Does B2 bind [2]?
A: binds

B3: 3AT (dsDNA)
DNA 1: CGCATATATGCG
DNA 2: CGCATATATGCG
Q: Does B3 bind ([1]; self-complementary 12 bp)?
A: binds

Q: Does B3 bind [3]?
A: binds

B4: Rok (full-length Rok protein, Bacillus subtilis subsp. subtilis str. 168) (natural protein, B. subtilis subsp. subtilis str. 168, UniProt O34857 1-191, looked up)
chain: MFNEREALRLRLEQLNEAEVKVIREYQIERDKIYAKLRELDRNGSPSEIKKDFRSEKKPDSLPVLAELAAQEIRSYQPQSQQQSVQPQLQSISSLPAGIPDGTTRRRRGTARPGSKAAKLREAAIKTLKRHNAAIKSSELQKEIEKESGLEIPNMTTFMQSLIKMYPEVKKPYRGQYILEGEIESAESANE
notes: Rok, xenogeneic silencer of Bacillus subtilis subsp. subtilis str; cloned into pET-21a(+) NdeI/XhoI; size of the higher order oligomer not determined; source: E. coli Rosetta (DE3), purified (Ni-NTA, size exclusion chromatography)
Q: Does B4 bind [2]?
A: binds

B5: Seq1 (dsDNA)
DNA 1: CTAATAACTAGTTATTAG
DNA 2: CTAATAACTAGTTATTAG
Q: How did the Kd [4] turn out when B5 was run?
A: 89 ± 42 µM

Q: And the Kd [5]?
A: 30.9 ± 2.9 µM

Q: What about the Kd [6] of the same binder?
A: 7.9 ± 1.3 µM

Q: And the Kd [7]?
A: 15 ± 1.9 µM

Q: What about the Kd [8] of the same binder?
A: 42.9 ± 8.1 µM

Q: What about the Kd [9] of the same binder?
A: 42.9 ± 7.1 µM

Q: And the Kd [10]?
A: 39.4 ± 6.4 µM

Q: What about the Kd [11] of the same binder?
A: 110 ± 35 µM

Q: What about the Kd [12] of the same binder?
A: 19.7 ± 2.7 µM

Q: What about the Kd [13] of the same binder?
A: 89 ± 42 µM

Q: And the Kd [14]?
A: 42.9 ± 7.1 µM
